Experimental data published in the nanobody polyreactivity screen of Harvey et al. (2022).

Assay: yeast display, Sf9 membrane polyspecificity reagent, FACS + sequencing; frameworks hold sequencing errors
Procedure, shortened: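 Nanobodies came from a synthetic yeast display library in Saccharomyces cerevisiae BJ5465, induced with galactose for 36–48 hours and stained for 1 hour at 4 °C with 10% biotinylated, detergent-solubilized Sf9 membrane reagent. Cells were enriched on streptavidin microbeads and then FACS-sorted, with low and high (top ~1%) gates set on anti-HA fluorescence for expression and streptavidin fluorescence for reagent binding. Each polyreactivity label reflects the gate a clone came from. Genes were amplified by colony PCR, sequenced by MiSeq 2 × 250 and filtered by CDR length.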

Sequence | polyreactivity (PSR sort gate)
QVQLVESGGGLVQAGGSLRLSCAASGRTFFINTMGWYRQAPGKEREFVAAITWSAGRTYYADSVKGRFTISRDNAKNTVYLQMNSLKPEDTAVYYCAAALHGHTFPFYYWGQGTLVTVSS | low polyreactivity
QVQLVESGGGLVQAGGSLRLSCAASGNIFIRYAMGWYRQAPGKERDLVAAISQSGGGTSYADSVKGRFTISRDNAKNTVYLQMNSLKPEDTAVYYCNARYWRYPWRFGAWVGHDYWGQGTQVTVSS | low polyreactivity
QVQLVESGGGLVQAGGSLRLSCAASGSTFQQYAMGWYRQAPGKERELVAAITGSTGSTYYADSVKGRFTISRDNAKNTVYLQMNSLKPEDTAVYYCNAVRYSRYYRKYNYWGQGTQVTVSS | high polyreactivity
QVQLVESGGGLVQAGGSLRLSCAASGSTLNYYAMGWYRQAPGKERELVAAIRSGGNTNYADSVKGRFTISRDNAKNTVYLQMNSLKPEDTAVYYCAKDESYFYDRVPLDYWGQGTQVTVSS | low polyreactivity
QVQLVESGGGLVQAGGSLRLSCAASGSTVHYMGWYRQAHGKESELVAGISWSGGSTYYADSVKGRFTISRDNAKKTVYLQINSLKPEDTAVYYCAADIKIRLYTTGDYWGQGTQVTVSS | low polyreactivity
QVQLVESGGGLVQAGGSLRLSCAASGSIFTIYAMGWYRQAPGKERELVAAIRESSGSTYYADSVKGRFTISRDYAKNTVYFQINSLKPEDTAVYYCAADINYSSYDYWGQGTQVTVSS | high polyreactivity
QVQLVESGGGLVQAGCSLRLSCAASGRIFSFYVMGWYRQAPGKERELVAAISLSGGSTYYADSVKGRFTISRDNAKNTVYLQMNSLKPEDTAVYYCNAVLYARLRDRWARYDYWGQGTQVTVSS | high polyreactivity
QVQLVESGGGLVQAGGSLRLSCAASVRIFDYNAMGWYRQAPGKERELVAAITSGGSTNYADSVKGRFTISRDNAKNTVYLQMNSLKPEDTAVYYCNAEPETTIDYWGQGTQVTVSS | low polyreactivity
QVQLVESGGGLVQAGGSLRLSCAASGRTLYRNAMGWYRQAPGKERELVARITWSGASTYYADSVKGRFTISRDNAKNTVYLQMNSLKPDDTAVYYCNTGYWYVSLGSYDYYGEYDYWGQGTQVTVSS | high polyreactivity
QVQLVESGGGLVQAGGSLRLSCAASGRTFAWYAMGWYRQAPGKERELVAAISNVGSTYYADSVKGRFTISRDNAKNTVYLQMNSLKPEDTAVYYCNADAVSTDGREYWGQGTQVTVSS | low polyreactivity
QVQLVESGGGLVQAGGSLRLSCAASGFIFSYYTMGWYRQAPGKERELVAAISRRGGSTYYADSVQGRFTISRDNAKNTVYLQRNSLKPEDTAVYYCAAPRDWDAGDYWGQGTQVTVSS | high polyreactivity
QVQLVESGGGLVQAGGSLRLSCAASGRIFVSNGMGWYRQAPGKERELVAVIRYSTGSTYYADSVKGRFTFSRDNAKTTVYLQMNCLKPEDTAVYYCAARNPFFEPSEYDYWGQGTQVTVSS | low polyreactivity
QVQLVESCGGLVQAGGSLRLSCAASGSTFGYYTMGWYRQAPGKEREFVAAITRSTGSTFYADSVKGRFTISRDNAKNTVYLQMNRLKPEDTAVYDCAATQPWYNTRTRYGSWGQGTQVTVSS | low polyreactivity
QVQLVESGGGLVQAGGSLRLSCAASGFTFFRYAMGWYRQAPGKERELVATITSGGTTNYADSVKGRFTISRDNAKNTVYLQMNSLKPEDTAVYYCAARTYPSYYVTFEYWGQGTQVTVSS | low polyreactivity
QVQLVESGGGLVQAVGSLRLSCAASGRTFSEYAMGWYRQAPGKERELVAAITGTGGSTYYADSVKGRFTISRDNAKNTVYLQMNSLKPEDTAVYFCAAEYYRYYFLSVSTDDYWGQGTQVTVSS | high polyreactivity
QVQLVESGRGLVQEGGSLRLSCAPSGSTFYRFAMGWYRQAPGKERELVAAISASGGSTYYADSVKGRFTISRDNAKYTVYLQMNSLKPEDTEVYYCNRDRRYRNDYWGQGTQVTVST | high polyreactivity
QVQLVESGGGLVQAGGSLRLSCAASGSTFTYYAMGWYRQAPGKERELVADISWDGGSTYYADSVKGRFTFSRDNAKNTVYLQMNSLKPEDTAVYYCATDLVYKYDYWGQGTQVTVSS | low polyreactivity
QVQLVESGGGLVQAGGSLRLSCAACGSTFYAYAMGWYRQAPGKERELVAAIDSGGSTYYADSVKGRFTISRYNAKNTVYLEMNSLKPEDTAVYYCAVRHRYTRAYRGRDYWGQGTQVTVSS | low polyreactivity
QVQLVESGGGLVQAGGSLRLSCAASGSTLRGYAMGWYRQAPGKERELVAAITYISDSTYYADSVKGRFTISRDNAKNTVYLQMNSLKPEDTAVYYCNAYYDGDWRYTSQETGDHWGQGTQVTVSS | low polyreactivity
QVQRVESGGGLVQAGGSHRLSCAASGRIFSLNAMGWYRQAPGKERELVAAITTTGGTTYYADSVKGRFTISRDKAKNTVYLQMNSLKPEDTAVYYCAADYAPYNYLAYYFSGWLEYWGQGTQVTVSS | low polyreactivity
QVQLVESGGGLVQAGGSLRLSCAASGRISSNVMGWYRQAPGKERELVAAISVSGARTYYADSVKGRFTISRDNAKNTVYLQMNSLKPEDTAVYDCAAVYGGVYYGGDYWGQGTQVTVSS | high polyreactivity
QVQRVESGGGLVQAGGSLRLSCAASGSIFPRYAMGWYRQAPGKEREMVATISSGGSTYYADSVKGRFTISRDNAKNTVYLQMNSLKPEHTAVYYCAARKRPYTVINGMDYWGQGTQVTVSS | low polyreactivity

Sequence | polyreactivity (PSR sort gate)
QVQLVESGGGLVQAGGSLRLSCAASGSTFIYYAMGWYRQAPGKERELVAVITGNGGRTYYADSVKGRFTISRDNAKNTVYLQMNSLKPEDTAVYYCAALYDGIYDSWGQGTQVTVSS | high polyreactivity
QVQLVESGGGLVQAGGSLRLSCAASGRTFSAYAMGWYRQAPGKERELVARITSVDSTNYADSVKGRFTISRDNAKNTVYLQMNSLKPEDTAVYYCNATFGYPCVDYDDYWGQGTQGTVSS | low polyreactivity
QVQLVESGGALVQAGGSLRLSCAASGSTFGRYAMGWYRQAPGKERELVATIRSGGSTTYADSVKGRFTISRDNAKNTVYLQMNSLKREDTAVYYCAAGTKPSYYYWGQGTQVTVSS | low polyreactivity
QVQLVESGGGLVQAGGSLRLSCAASGSIFGRYVMGWYRQAPGKEREFVAAITYSGSSTYYADSVKGRFTISRDNAKNTVYLQMNSLKPEDTAVYYCNTYPRSFYWMGYWGQGTQVTVSS | high polyreactivity
QVQLVESGGGLVQAGGSLRLSCAASGRTFRWYPMGWYRHAPGKEREFVARITWSGGRTYYADSVKGRFTISRDNAKNTVYLQMNSLKPEDTADYYCAAYFVGRYRLEYWGQGTQVTVSS | high polyreactivity
QVQLVESGGGLVQAGGSLRLSCAASGITFSHNAMGWYRQAPGKERELVAAITRSGRSTYYADSVKGRFTISRDNAKNTVYLQMNSLKPEDTAVYYCSTDNHQRRAGSGYWGQGTQVTVSS | low polyreactivity
QVQLVESGGGLVQAGGSLRLSCAASGSTILHYAMGWYRQAPGKEREFTYYADSVKGRFTISRDNAKNTVCLQMNSLTPEDTAVYYCNADPAVSGGSIATDEYDYWVQGTQVTVSS | low polyreactivity
QVQLVESGGGLVQAGGSLRLSCAASGRTFYGNAMGWYRQAPGKERELVAAISYRTGRTYYADSVKGRFTISRDNAKNTVYLQMNSLKPEDTAVYYCAADLHSRDDYWGQGTKVTVSS | high polyreactivity
QVQLVESGGGLVQAGGSLRLSCAASGSIFDSYAMGWYRQAPGKERELVASISRRGGTTYYADSVKGRFTISRDNAKNTGYLQMNSLKPEDTAVYYCAKVGSLYQPSRYDYWGQGTQVTVTS | high polyreactivity
QVQLVESGGGLVQAGGSLRLSCAASGSIFNYSAMGWYRQAPGKERELVAAITTSGGNTYYADSVQGRFTISRDNAKNTVYLQMNSLKPEDSAVYYCARTVSRYGTGNMDYWGQGTKVTVSS | low polyreactivity
QVQLVESGGGLVQAGGSLRLSCAASGIIFTPNAMGWSRQAPGKERELVAAINYGGDTTYYADSVKGRFTISRDNAKNTVYFQMNSLKPADTAVYYCATDGTTPTPRDAFVRFDHWGQGTQVTVSS | low polyreactivity
QVQLVESGGGLGQAGASLRLICAPSGSIFLIYCMGWYRQSPGKERELVAAITARGGSTYYADSVKGSFTISRDNAKNTVYLQMNSLKPEDTSVYYCNDVGYPDVGAGTYGYWGQGTQVTVSS | low polyreactivity
QVQLVESGGGLVQSGGSLRLSCAASGSIFWYNARGWYRQAPGKERELVAAINGGGRTYYADSVKGPFTISRDNAKNTVYLQMNSLKPEDTAVYYCAVDPISQGHMDYGGQGTQVTVSS | low polyreactivity
QVQLVESGGGLVQAGGSLRLSCAASGSIFQPYAMGWYRQAPGKERELVAAISSSGGSTTYADSVKGRFTISRDNAKNTVYLQMNSLKPEDTAVYYCAAQYRYYPEAYGMGYWGQGTQVTVSS | low polyreactivity
QVQLVESGGGLVQAGGSLRLSCAASGFTFYGNAMGWYRQAPGKERELVAAISSGGSTNYADSVKGRFTISRDNAKNTVYLQMNSLKPEDTAVYYCAASYPGQVSFPYASIGFDYWGQGTQVTVSS | low polyreactivity
QVQLVESGGALVQAGGSLRLSCAASGFTFAWYAMGWYRQAPGKERELVAAISRSGGSTYYADSVKGRFTISRDNAKNTVYLQMNSLKPEDTAVYYCATRVYSYRKAGWYDYWGQGTQVTVSS | high polyreactivity
QVQLVESGGGLVQAGGSLRLSCAASGITLLYNAMGWYRQAPGKERELVAGITGRGGSTYYADSVKGRFTISRDNAKNTVYLQMNSLKPEDNAVYYCAATTDYRYVGRIVIRDDHWGHGTQVTVSS | low polyreactivity
QVQLVESGGGLVQAGGSLLLSCAASGRILWRYAMGWYRQARGKERELVAGITYSGGRTYYADSVKVRFTISRDNAKNTVYLQMNSLKPEDTAVYYCNADYADSPYFYLLLDYWGQGTQVTVSS | low polyreactivity
QVQLVESGGGLVQAGGSLRLSCAASGSIFGVNAMGWYRQAPGKERELVAAISSGGSTNYADSVKGRFTISRDNAKNTVYLQMNSLKPEDTAVYYCAADTNTRSNYDYWGQGTQVTVSS | low polyreactivity
QVKLVESGGGLVQAGGSLRLSCAASGSISLYYAMGWYRQAPGKERELVAAISDSGGDTYYADSVKGRFTISRDNAKITVYLQMNSLKPADTAVYYCATDTAYWLWVYALLEYWGQGTQVTVSS | low polyreactivity
QVQLVESGGGLVQAGGSLRLSCAASGRTSFQYAMGWYRQAPGKERELVAAISWSGGSTFYADSVKGRFTISRDNAKNTVYLQMNSLKPEDTAVYYCNAVSTDSWAYHGDYWGQGTQVTVSS | low polyreactivity
